# Data as given in US20180299467A1.
# Legend:
# [1] = target: F-actin; assay: co-sedimentation with F-actin in the presence of TM, densitometry of pellet (FIG. 3C)
# [2] = tested on: citrullinated F-actin (treated with PAD2)
# [3] = tested on: F-actin
Substance,percent of TnI present in the pellet [1],actomyosin HMM-ATPase activity (rate of ATP hydrolysis) [2],actomyosin HMM-ATPase activity [3],decrease in actomyosin HMM-ATPase activity against non-citrullinated HMM [3],increase in actomyosin HMM-ATPase rate against unmodified F-actin [2]
"cardiac troponin I (TnI), non-citrullinated",> 95%,–,–,–,–
citrullinated cardiac troponin I (TnI treated with PAD2),> 95%,–,–,–,–
citrullinated heavy meromyosin (HMM treated with PAD2),–,0.368±0.005 nmol Pi,0.22±0.002 nmol Pi,corresponding to 30% decrease in the enzyme activity,–
"heavy meromyosin (HMM), non-citrullinated",–,–,0.32±0.01 nmol Pi,–,increased actomyosin HMM-ATPase rate by 55% compared to the unmodified F-actin
